Measured values as given in patent US20230235054A1 (BIOATLA, published 2023).
Residue numbers refer to the chain shown, from its start.

T1: human Nectin-4-mFc (human, UniProt Q96NY8 32-349)
T1 construct: extracellular domain; Detection reagent of the bridging ELISA; also called recombinant human Nectin-4 ECD; not shown: mFc (mouse Fc)
T1 sequence (looked up): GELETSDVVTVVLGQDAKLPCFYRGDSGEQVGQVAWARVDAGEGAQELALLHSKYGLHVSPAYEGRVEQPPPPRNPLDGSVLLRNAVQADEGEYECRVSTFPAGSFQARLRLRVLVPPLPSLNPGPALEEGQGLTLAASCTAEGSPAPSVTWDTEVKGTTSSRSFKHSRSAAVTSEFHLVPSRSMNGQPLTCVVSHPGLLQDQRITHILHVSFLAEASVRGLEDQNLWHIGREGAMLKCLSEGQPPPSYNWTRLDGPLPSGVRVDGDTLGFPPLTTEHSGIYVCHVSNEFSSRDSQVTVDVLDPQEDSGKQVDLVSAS

B1: WT Nectin4 × WT CD3 (bispecific antibody)
VH: EVQLVESGGGLVQPGGSLRLSCAASGFTFSSYNMNWVRQAPGKGLEWVSYISSSSSTIYYADSVKGRFTISRDNAKNSLSLQMNSLRDEDTAVYYCARAYYYGMDVWGQGTTVTVSS
light: DIQMTQSPSSVSASVGDRVTITCRASQGISGWLAWYQQKPGKAPKFLIYAASTLQSGVPSRFSGSGSGTDFTLTISSLQPEDFATYYCQQAQSFPPTFGGGTKVEIKRTVAAPSVFIFPPSDEQLKSGTASVVCLLNNFYPREAKVQWKVDNALQSGNSQESVTEQDSKDSTYSLSSTLTLSKADYEKHKVYACEVTHQGLSSPVTKSFNRGECSRSGGGGEVQLVESGGGLVQPGGSLRLSCAASGFTFNTYAMNWVRQAPGKGLEWVARIRSKYNNYATYYADSVKDRFTISRDDSKNSLYLQMNSLKTEDTAVYYCVRHGNFGNSYVSWFAYWGQGTLVTVSSGGSGGSGGSGGSGGQAVVTQEPSLTVSPGGTVTLTCRSSTGAVTTSNYANWVQQKPGQAPRGLIGGTNKRAPWTPARFSGSLLGGKAALTITGAQAEDEADYYCALWYSNLWVFGGGTKLTVLSR
notes: elsewhere it is called a light chain variable region that also carries six anti-CD3 CDRs; also called BA-150-19-01-01-BF1; benchmark
B2: CAB Nectin4 × CAB CD3 (bispecific antibody)
VH: B1 VH with V106K
light: B1 light with L33E, G326P, Y329K, A334Q, A395D
notes: elsewhere it is called a light chain variable region that also carries six anti-CD3 CDRs; also called BA-150-30-03-12-BF19

Tests used:
[1] = biological target: T2, CD3 epsilon/delta heterodimer protein (human, UniProt P07766 23-126; P04234 22-105); experiment: bridging ELISA, human CD3 coated, bispecific titrated, detection with human Nectin-4-mFc and anti-mouse IgG HRP, physiological pH (pH 7.4 in the protocol); the signal needs both arms
T2 construct: Capture antigen of the bridging ELISA; also called human CD3; recombinant human CD3 antigen
T2 sequence (P07766 23-126, stated change not applied, chain 1 of 2): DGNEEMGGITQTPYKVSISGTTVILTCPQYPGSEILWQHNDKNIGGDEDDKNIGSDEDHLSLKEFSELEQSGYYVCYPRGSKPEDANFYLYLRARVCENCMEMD
T2 sequence (P04234 22-105, stated change not applied, chain 2 of 2): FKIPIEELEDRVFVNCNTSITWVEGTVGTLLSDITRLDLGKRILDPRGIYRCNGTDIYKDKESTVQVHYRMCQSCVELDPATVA
Procedure: (§1) 1) Coat ELISA plates with 100 μL of 0.5 μg/mL recombinant human CD3 antigen in carbonate-bicarbonate coating buffer. 2) Cover plates with sealing film and incubate overnight at 4° C. 3) Decant plates and tap out residual liquid on a stack of paper towels. 4) Wash wells twice by dispensing 200 μL of pH 6.0 or pH 7.4 ELISA incubation buffer to the wells and completely aspirate the contents. 5) Add 200 μL of pH 6.0 or pH 7.4 ELISA incubation buffer to the wells. Cover with sealing film and place the plate onto a plate shaker set to 50 rpm for 60 minutes at room temperature. 6) Decant plates and tap out residual liquid on a stack of paper towels. 7) Serially dilute test articles in 3-fold dilutions starting at 3000 ng/mL in pH 6.0 or pH 7.4 ELISA incubation buffer. 8) Add 100 μL/well of diluted test articles to the plates 9) Cover with sealing film and place the plates onto a plate shaker set to 50 rpm for 60 minutes at room temperature. 10) Decant plates and tap out residual liquid on a stack of paper towels. 11) Wash wells three times by dispensing 200 μL of pH 6.0 or pH 7.4 ELISA wash buffer to the wells and completely aspirate the contents. 12) Dilute the HRP secondary antibody at 1:2500 in pH 6.0 or pH 7.4 ELISA incubation buffer. […] Read plates at 450 nm using PerkinElmer, EnSpire 2300 Multilabel Reader.

[2] = biological target: T1, human Nectin-4-mFc; experiment: bridging ELISA, human CD3 coated, detection with human Nectin-4-mFc and anti-mouse IgG HRP, tumor pH (pH 6.0 in the protocol)
[3] = biological target: T2, CD3 epsilon/delta heterodimer protein; experiment: bridging ELISA, human CD3 coated, bispecific titrated, detection with human Nectin-4-mFc and anti-mouse IgG HRP, tumor pH (pH 6.0 in the protocol); the signal needs both arms
Procedure: as §1

Binder	EC50 (read off the curve) [1]	binding result [2]	EC50 (read off the curve) [3]
B1	~0.03 µg/mL	binds	~0.05 µg/mL
B2	~0.2 µg/mL	binds	~0.03 µg/mL
